These results are taken from article PMC10164616.

The target of this assay is monomeric receptor binding domain from SARS-CoV-2 Spike protein, RBD (319-541)-His6 (SARS-CoV-2) (UniProt P0DTC2). The assay can be described thus: SEC.

Take “monomeric receptor binding domain from SARS-CoV-2 Spike protein, RBD (319-541)-His6 (from UniProt P0DTC2 319-541) (domain or fragment)”: the percent dimer (GF-HPLC, first week at 37 °C) was determined as 14% and the stoichiometry N is 2.
